Test results from patent publication US20220033505A1 (Janssen / Centocor, published 2022).
Positions count from the first letter of the chain named.

Tests used:
[1] = molecular target: T1, MHGW8 (B2m-3(G4S)-HLA-G1-G4S-Avi), soluble HLA-G1 extracellular domain (human, biotinylated (Avi tag) in the ligand blocking assay); test: competition, flow cytometry: antibody titrated against MHGW8-dextramer binding to ILT2 on HEK293T cells (competitor ILT2)
T1 construct: also called HLA-G (MHGW8); recombinant biotinylated HLA-G1 (MHGW8)

[2] = molecular target: T1, MHGW8 (B2m-3(G4S)-HLA-G1-G4S-Avi), …; test: competition, flow cytometry: antibody titrated against MHGW8-dextramer binding to ILT4 on HEK293T cells (competitor ILT4)
[3] = molecular target: T2, HLA-G1 on K562 cells (K562-HLA-G) (human); test: flow cytometry; IgG1 mAb on cells expressing HLA-G
T2 construct: also called cells expressing HLA-G

[4] = molecular target: HLA-G on NCI-H2009-b2m target cells (human, UniProt P17693 25-338); test: cell-based or functional assay

B1: MHGB672 (antibody, human IgG1, kappa, V domains shown)
VH: QVQLQQSGPGLVKPSQTLSLTCAISGDSVSSNRAAWNWIRQTPSRGLEWLGRTYYRSEWYNDYAVSVKSRITINPDTSKNQFSLQLNSVTPEDTAVYYCARVRAAVPFDYWGQGTLVTVSS
VL: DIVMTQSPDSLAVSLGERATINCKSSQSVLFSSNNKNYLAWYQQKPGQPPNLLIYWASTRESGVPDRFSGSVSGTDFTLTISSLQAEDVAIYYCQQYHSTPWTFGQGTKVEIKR
notes: IgG1 mAb
For B1, the EC50 [1] was 2.12 nM, the EC50 [2] was 1.61 nM and the “Geomean fluorescence signal (maximum value for binding)” value (from here on “Geomean fluorescence signal”) [3] was 522000.

B2: MHGB738 (GL optimized B688) (antibody, human IgG1, kappa, V domains shown)
VH: B1 VH with T42S, E58K, F82I, A104P, A105G, V106I, L116P
VL: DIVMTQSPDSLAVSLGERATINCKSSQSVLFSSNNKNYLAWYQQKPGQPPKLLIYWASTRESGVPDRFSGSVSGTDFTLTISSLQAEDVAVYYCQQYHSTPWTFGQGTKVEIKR
notes: IgG1 mAb
B2 gave an EC50 [1] of 0.73 nM and an EC50 [2] of 0.8 nM.

B3: MHGB687 (antibody, human IgG1, kappa, V domains shown)
VH: QLQLQESGPGLVKPSETLSLMCTVSGGSITSSSYYWGWIRQPPGKGLEWIGNIYYSGTTYYNPSLKSRVTISVDTSKNQFSLKLSSVTAADTAVYYCAAGARDFDSWGQGSLVTVSS
VL: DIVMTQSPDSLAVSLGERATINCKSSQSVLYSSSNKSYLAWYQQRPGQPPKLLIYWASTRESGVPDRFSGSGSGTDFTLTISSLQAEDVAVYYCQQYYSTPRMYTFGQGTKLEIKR
notes: IgG1 mAb
With B3 the EC50 [2] was 1.86 nM and the “Geomean fluorescence signal” value [3] was 528000.

B4: MHGB688 (antibody, human IgG1, kappa, V domains shown)
VH: EVQLLESGPGLVKPSQTLSLTCVISGDSVSSNRAAWNWIRQSPSRGLEWLGRTYYRSKWYNDYAVSVKSRITINSDTSKNQISLQLNSVTPEDTAVYYCARVRPGIPFDYWGQGTPVTVSS
VL: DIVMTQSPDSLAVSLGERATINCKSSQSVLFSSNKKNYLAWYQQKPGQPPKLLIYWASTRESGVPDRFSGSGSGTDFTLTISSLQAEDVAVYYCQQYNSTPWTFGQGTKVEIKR
notes: IgG1 mAb
With B4 the EC50 [1] was 1.72 nM, the EC50 [2] was 1.42 nM and the “Geomean fluorescence signal” value [3] was 482000.

B5: MHGB668 (antibody, human IgG1, kappa, V domains shown)
VH: QVQLQQSGPGLVKPSQTLSLTCAISGDSVSNNSAAWNWIRQSPSRGLEWLGRTYYRSKWYNDYAVSVKSRITINPDTSKNQFSLQLNSVTPEDTAVYYCARYGSGTLLFDYWGQGTLVTVSS
VL: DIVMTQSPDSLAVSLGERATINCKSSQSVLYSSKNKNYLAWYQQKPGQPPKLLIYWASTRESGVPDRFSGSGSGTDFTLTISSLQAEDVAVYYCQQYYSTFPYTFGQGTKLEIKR
notes: IgG1 mAb
B5 was tested, and the “Geomean fluorescence signal” value [3] was 591000.

B6: HC3B216 (CD3B376-Fab-Fc x MHGB737-scFv-Fc) (bispecific antibody, human IgG1, lambda, L234A L235A)
heavy: QVQLQQSGPRLVRPSQTLSLTCAISGDSVFNNNAAWSWIRQSPSRGLEWLGRTYYRSKWLYDYAVSVKSRITVNPDTSRNQFTLQLNSVTPEDTALYYCARGYSSSFDYWGQGTLVTVSSASTKGPSVFPLAPSSKSTSGGTAALGCLVKDYFPEPVTVSWNSGALTSGVHTFPAVLQSSGLYSLSSVVTVPSSSLGTQTYICNVNHKPSNTKVDKKVEPKSCDKTHTCPPCPAPEAAGGPSVFLFPPKPKDTLMISRTPEVTCVVVSVSHEDPEVKFNWYVDGVEVHNAKTKPREEQYNSTYRVVSVLTVLHQDWLNGKEYKCKVSNKALPAPIEKTISKAKGQPREPQVYVYPPSREEMTKNQVSLTCLVKGFYPSDIAVEWESNGQPENNYKTTPPVLDSDGSFALVSKLTVDKSRWQQGNVFSCSVMHEALHNHYTQKSLSLSPGK
light: QSALTQPASVSGSPGQSITISCTGTSSNIGTYKFVSWYQQHPDKAPKVLLYEVSKRPSGVSSRFSGSKSGNTASLTISGLQAEDQADYHCVSYAGSGTLLFGGGTKLTVLGQPKAAPSVTLFPPSSEELQANKATLVCLISDFYPGAVTVAWKADSSPVKAGVETTTPSKQSNNKYAASSYLSLTPEQWKSHRSYSCQVTHEGSTVEKTVAPTECS
scFv: not shown
B6 was tested, and the “Cytotoxicity, EC50 (M); T cell-mediated cytotoxicity against NCI-H2009-b2m cells, 72 hr, E:T 3:1” value (“Cytotoxicity, EC50 (M)” below) [4] was 1.9e-09 M.

B7: HC3B124 (CD3B219-Fab-Fc x MHGB732-scFv-Fc) (bispecific antibody, human IgG1, lambda, L234A L235A)
heavy: EVQLVESGGGLVQPGGSLRLSCAASGFTFNTYAMNWVRQAPGKGLEWVARIRSKYNNYATYYAASVKGRFTISRDDSKNSLYLQMNSLKTEDTAVYYCVRHGNFGNSYVSWFAYWGQGTLVTVSSASTKGPSVFPLAPSSKSTSGGTAALGCLVKDYFPEPVTVSWNSGALTSGVHTFPAVLQSSGLYSLSSVVTVPSSSLGTQTYICNVNHKPSNTKVDKKVEPKSCDKTHTCPPCPAPEAAGGPSVFLFPPKPKDTLMISRTPEVTCVVVSVSHEDPEVKFNWYVDGVEVHNAKTKPREEQYNSTYRVVSVLTVLHQDWLNGKEYKCKVSNKALPAPIEKTISKAKGQPREPQVYVYPPSREEMTKNQVSLTCLVKGFYPSDIAVEWESNGQPENNYKTTPPVLDSDGSFALVSKLTVDKSRWQQGNVFSCSVMHEALHNHYTQKSLSLSPG
light: QTVVTQEPSLTVSPGGTVTLTCRSSTGAVTTSNYANWVQQKPGQAPRGLIGGTNKRAPGTPARFSGSLLGGKAALTLSGVQPEDEAEYYCALWYSNLWVFGGGTKLTVLGQPKAAPSVTLFPPSSEELQANKATLVCLISDFYPGAVTVAWKADSSPVKAGVETTTPSKQSNNKYAASSYLSLTPEQWKSHRSYSCQVTHEGSTVEKTVAPTECS
scFv: DIVMTQSPDSLAVSLGERATINCKSSQSVLHSSNNKNYLTWFQQKPGQPPKLLIYWASTRESGVPDRFSGSGSGTDFTLTISSLQAEDVAVYYCHQYYSTPPTFGQGTKVEIKGGSEGKSSGSGSESKSTGGSQVQLQQSGPGLVKPSQTLSLTCAISGDSVSSNSAAWNWIRQSPSRGLEWLGRTYYRSKWYNDYAVSVKSRITINPDTSKNQISLQLNSVTPEDTAVYYCAGDRRYGIVGLPFAYWGQGTLVTVSSEPKSSDKTHTCPPCPAPEAAGGPSVFLFPPKPKDTLMISRTPEVTCVVVSVSHEDPEVKFNWYVDGVEVHNAKTKPREEQYNSTYRVVSVLTVLHQDWLNGKEYKCKVSNKALPAPIEKTISKAKGQPREPQVYVLPPSREEMTKNQVSLLCLVKGFYPSDIAVEWESNGQPENNYLTWPPVLDSDGSFFLYSKLTVDKSRWQQGNVFSCSVMHEALHNHYTQKSLSLSPG
For B7, the “Cytotoxicity, EC50 (M)” value [4] was 3.85e-12 M.

B8: HC3B123 (CD3W246-Fab-Fc x MHGB732-LH-scFv-Fc) (bispecific antibody, human IgG1, kappa, L234A L235A)
heavy: EVQLVESGGGLVKPGGSLRLSCAASGFTFSRYNMNWVRQAPGKGLEWVSSISTSSNYIYYADSVKGRFTFSRDNAKNSLDLQMSGLRAEDTAIYYCTRGWGPFDYWGQGTLVTVSSASTKGPSVFPLAPSSKSTSGGTAALGCLVKDYFPEPVTVSWNSGALTSGVHTFPAVLQSSGLYSLSSVVTVPSSSLGTQTYICNVNHKPSNTKVDKKVEPKSCDKTHTCPPCPAPEAAGGPSVFLFPPKPKDTLMISRTPEVTCVVVSVSHEDPEVKFNWYVDGVEVHNAKTKPREEQYNSTYRVVSVLTVLHQDWLNGKEYKCKVSNKALPAPIEKTISKAKGQPREPQVYVYPPSREEMTKNQVSLTCLVKGFYPSDIAVEWESNGQPENNYKTTPPVLDSDGSFALVSKLTVDKSRWQQGNVFSCSVMHEALHNHYTQKSLSLSPGK
light: DIQMTQSPSSLSASVGDRVTITCRARQSIGTAIHWYQQKPGKAPKLLIKYASESISGVPSRFSGSGSGTDFTLTISSVQPEDFATYYCQQSGSWPYTFGQGTKLEIKRTVAAPSVFIFPPSDEQLKSGTASVVCLLNNFYPREAKVQWKVDNALQSGNSQESVTEQDSKDSTYSLSSTLTLSKADYEKHKVYACEVTHQGLSSPVTKSFNRGEC
scFv: B7 scFv
B8 was tested, and the “Cytotoxicity, EC50 (M)” value [4] was 3.24e-12 M.

B9: MHGB669 (antibody, human IgG1, kappa, V domains shown)
VH: QVQLQQSGPGLVRPSQTLSVTCAISGDSVSSNSASWNWIRQSPSRGLEWLGRTYYRSEWFNDYAVSVKSRVTINPDTSKNQLSLQLNSVIPEDTAVYYCAREARIGVAGKGFDYWGQGTLVTVSS
VL: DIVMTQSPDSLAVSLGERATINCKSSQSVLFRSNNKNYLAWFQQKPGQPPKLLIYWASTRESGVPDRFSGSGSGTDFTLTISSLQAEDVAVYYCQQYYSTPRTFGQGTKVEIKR
notes: IgG1 mAb
In the case of B9, the EC50 [1] is reported as 1.7 nM, the EC50 [2] is reported as 1.59 nM and the “Geomean fluorescence signal” value [3] is reported as 616000.

B10: HC3B214 (CD3W246-Fab-Fc x MHGB737-scFv-Fc) (bispecific antibody, human IgG1, kappa, L234A L235A)
heavy: B8 heavy
light: B8 light
scFv: not shown
In the case of B10, the “Cytotoxicity, EC50 (M)” value [4] is reported as 1.38e-10 M.

B11: MHGB694 (antibody, human IgG1, kappa, V domains shown)
VH: EVQLLESGGGLVQPGGSLRLSCAASGFTFSSYAMHWVRQAPGKGLDWVSGISGSGFSTYYVDSVKGRFTISRDNSKHTLYLQMNSLRAEDTAVYYCAKDNLVAGTVFDYWGQGTLVTVSS
VL: not shown
notes: IgG1 mAb
In the case of B11, the EC50 [1] is reported as 0.64 nM, the EC50 [2] is reported as 0.2 nM and the “Geomean fluorescence signal” value [3] is reported as 473000.

B12: MHGB665/MHGB732 (one printed row for both names), IgG1 mAb (antibody, V domains shown)
VH: QVQLQQSGPGLVKPSQTLSLTCAISGDSVSSNSAAWNWIRQSPSRGLEWLGRTYYRSKWYNDYAVSVKSRITINPDTSKNQISLQLNSVTPEDTAVYYCAGDRRYGIVGLPFAYWGQGTLVTVSS
VL: not shown
notes: tested as IgG1 mAb
In the case of B12, the “Geomean fluorescence signal” value [3] is reported as 632000.
